Reference: article PMC8886820
Read-outs that look alike come from different tables or passages of the source.

Columns and labels:
[1] = target: MBP-Spc105(10xMEED)-TST (D. melanogaster); test: pull-down
[2] = target: phospho-10xMEED (MBP-Spc105(10xMEED)-TST phosphorylated by activated Sli15(INBOX)-Ipl1) (D. melanogaster); test: pull-down
[3] = target: Taxol-stabilized microtubules (UniProt P02550); test: TIRF microscopy of EGFP-tagged protein on surface-held microtubules
[4] = target: Taxol-stabilized microtubules (UniProt P02550); test: as above; remark: listed apart in the source

Taxol-stabilized microtubules, sequence (P02550 whole entry, chain 1 of 2): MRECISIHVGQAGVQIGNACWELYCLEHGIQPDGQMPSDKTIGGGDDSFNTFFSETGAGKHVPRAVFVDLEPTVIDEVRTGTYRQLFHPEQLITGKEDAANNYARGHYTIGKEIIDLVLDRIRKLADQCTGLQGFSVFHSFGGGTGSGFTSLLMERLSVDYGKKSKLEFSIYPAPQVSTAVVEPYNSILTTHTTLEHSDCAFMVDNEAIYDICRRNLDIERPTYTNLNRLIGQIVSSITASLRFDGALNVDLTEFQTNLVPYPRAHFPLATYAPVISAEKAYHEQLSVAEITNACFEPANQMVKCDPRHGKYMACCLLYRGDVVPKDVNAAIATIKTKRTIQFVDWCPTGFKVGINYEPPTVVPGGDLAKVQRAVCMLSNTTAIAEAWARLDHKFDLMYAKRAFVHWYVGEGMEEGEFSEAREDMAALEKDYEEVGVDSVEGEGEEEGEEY
Taxol-stabilized microtubules, sequence (P02554 whole entry, chain 2 of 2, further chain): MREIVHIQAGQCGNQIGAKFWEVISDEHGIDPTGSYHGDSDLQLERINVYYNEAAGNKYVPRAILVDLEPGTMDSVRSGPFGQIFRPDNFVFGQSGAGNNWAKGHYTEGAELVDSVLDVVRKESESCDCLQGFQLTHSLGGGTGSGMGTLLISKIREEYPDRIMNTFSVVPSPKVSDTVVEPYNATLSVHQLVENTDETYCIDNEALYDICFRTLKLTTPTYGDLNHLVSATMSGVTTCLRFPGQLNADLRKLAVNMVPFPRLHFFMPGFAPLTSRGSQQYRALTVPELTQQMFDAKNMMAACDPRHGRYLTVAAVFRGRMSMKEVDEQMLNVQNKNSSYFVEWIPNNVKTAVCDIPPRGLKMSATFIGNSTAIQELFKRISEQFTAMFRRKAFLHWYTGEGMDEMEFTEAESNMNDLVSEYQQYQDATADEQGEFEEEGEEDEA

A fold Bub3 bound against the MBP-TST control [1] of 2 fold and a fold Bub3 bound against the unphosphorylated MBP-TST control [2] of 30 fold were found for Bub3-EGFP (natural protein) in this work.
A percent of the MT binding of Spc105-B(1-400) [3] of less than 50% was found for “Spc105-A(1-400)-EGFP (domain or fragment)” in this work.
A percent of the MT binding of unphosphorylated Spc105-B(1-400) in 150 mM KCl [3] of 22.1% was found for “Spc105-B(1-400)-EGFP phosphorylated with Sli15(INBOX)-Ipl1 (domain or fragment)” in this work.
A percent of the MT binding of Spc105-B(1-400) in 150 mM KCl [4] of 12.5%, a percent of the MT binding of Spc105-B(1-400) in 150 mM KCl [3] of 14.6% and a percent reduction of MT binding against Spc105-B(1-400) without 1,6-HD [3] of 40% were found for “Spc105-B(1-400)-EGFP (domain or fragment)” in this work.
